This note sets out measurements from patent US20170369576A1 (UBI US, published 2017).

Several values for one entry are separate records, joined by “and”; a condition that tells them apart may be missing. Equal entries are not always repeated.

What is called EC50 is the concentration at which the effect is half-maximal. A high value points to weaker potency. As a reminder, the Kd is the free concentration of one partner at which half of the binding sites on the other are occupied at equilibrium, for simple one-to-one binding.

Assay [1] has as its target T1, human CD4, membrane-bound on cells (HPB-ALL cells, blood/PBMC CD4+ T cells, assay target cells) (human, UniProt P01730 26-458).
T1 construct: whole, on cells; Target on human HPB-ALL T-leukemic cells, human blood CD4+ T lymphocytes and CD4+ indicator cells of the neutralisation assays; also called CD4 receptor; surface CD4
In words: binding to human CD4 positive T cells (FIG. 21).

In assay [2] the target is T2, baboon CD4 on CD4 positive T cells (baboon (Papio species), UniProt A0A096MWA4 26-457).
T2 construct: also called baboon CD4+ T cells
T2 sequence (A0A096MWA4 entry or part of it limits assumed, form in doubt): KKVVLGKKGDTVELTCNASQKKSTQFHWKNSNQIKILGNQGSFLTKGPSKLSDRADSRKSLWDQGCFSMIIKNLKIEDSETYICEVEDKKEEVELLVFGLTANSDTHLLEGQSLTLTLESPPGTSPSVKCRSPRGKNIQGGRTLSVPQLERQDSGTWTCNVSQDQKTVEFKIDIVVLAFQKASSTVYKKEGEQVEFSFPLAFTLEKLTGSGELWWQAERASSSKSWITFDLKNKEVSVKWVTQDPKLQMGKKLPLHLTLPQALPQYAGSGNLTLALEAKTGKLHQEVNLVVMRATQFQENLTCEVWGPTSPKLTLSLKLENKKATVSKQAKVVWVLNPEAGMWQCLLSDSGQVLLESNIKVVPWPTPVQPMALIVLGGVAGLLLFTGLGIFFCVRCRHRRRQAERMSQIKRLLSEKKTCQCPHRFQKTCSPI
The assay is described as follows: binding to baboon CD4 positive T cells (FIG. 21).

For assay [3], the target named is T1, human CD4, membrane-bound on cells …. The assay is described as follows: comparison of IC50 values, competition FACS on HPB-ALL cells.
Assay [4] has the same target. In words: comparison of IC50 values of FACS competition (HPB-ALL) and ELISA competition (sCD4/p2704a). For orientation: ELISA stands for enzyme-linked immunosorbent assay.
Method: On V-bottomed microplates, aliquots of 2×10⁵ cells in 0.1 mL per well were added, centrifuged, and liquid discarded. […] The cells were washed once and the liquid discarded after centrifugation. To each well, aliquots of 200 μL of binding buffer were added and transferred to microdilution tubes for flow cytometric analysis. The binding intensity (mean fluorescence intensity, MFI), based on an inlet of 5,000 cells per sample, was read on FACS.
For assay [5] the target is unchanged. The assay is described as follows: FACS, fresh blood CD4+ T cells of subject F1; bound dB4 detected by goat anti-hIgG-FITC. A general note: In flow cytometry, cells or beads pass a laser one at a time.
From the text: (§1) The samples were calibrated with reference beads for fluorescence reading.
Assay [6] has the same target. The assay is described as follows: FACS, fresh blood CD4+ T cells of subject F2; bound dB4 detected by goat anti-hIgG-FITC.
From the text: as §1
The target is the same in assay [7]. In words: FACS, fresh blood CD4+ T cells of subject M1; bound dB4 detected by goat anti-hIgG-FITC.
From the text: as §1
Assay [8] has the same target. In words: FACS, fresh blood CD4+ T cells of subject M3; bound dB4 detected by goat anti-hIgG-FITC.
From the text: as §1
The target is the same in assay [9]. The assay is described as follows: FACS direct binding to HPB-ALL cells, on ice 1 h, goat F(ab)2 anti-huIgG Fc-FITC; EC50 by MFI, exp. 1.
Method: (§2) On V-bottomed microplates, aliquots of 2×10⁵ cells in 0.1 mL per well were added, centrifuged, and liquid discarded. […] This step was repeated one more time. The cells from the three incubations (passages) were investigated. […] The cells were washed once and the liquid discarded after centrifugation. To each well, aliquots of 200 μL of binding buffer were added and transferred to microdilution tubes for flow cytometric analysis. The binding intensity (mean fluorescence intensity, MFI), based on an inlet of 5,000 cells per sample, was read on FACS.
(§3) The absolute MFI values were also normalized to % MFI for purpose of between-passage comparison.
Assay [10] has the same target. The assay is described as follows: FACS direct binding to HPB-ALL cells, on ice 1 h, goat F(ab)2 anti-huIgG Fc-FITC; EC50 by MFI, exp. 2.
Method: as §2, §3
For assay [11] the target is unchanged. The assay is described as follows: FACS direct binding to HPB-ALL cells, on ice 1 h, goat F(ab)2 anti-huIgG Fc-FITC; EC50 by MFI, exp. 3.
Method: as §2, §3
For assay [12] the target is unchanged. The assay is described as follows: FACS direct binding to HPB-ALL cells, on ice 1 h, goat F(ab)2 anti-huIgG Fc-FITC; EC50 by % MFI, exp. 2.
Method: as §2, §3
Assay [13] shares this target. In words: FACS direct binding to HPB-ALL cells, on ice 1 h, goat F(ab)2 anti-huIgG Fc-FITC; EC50 by MFI, mean of 3.
Method: as §2, §3
The target is the same in assay [14]. The assay is described as follows: FACS, fresh blood CD4+ T cells of subject F1; free CD4 sites left by dB4 detected by dB4C7-Alexa (250 ng/mL).
For assay [15] the target is unchanged. The assay is described as follows: FACS, fresh blood CD4+ T cells of subject F2; free CD4 sites left by dB4 detected by dB4C7-Alexa (250 ng/mL).
Assay [16] has the same target. In words: FACS, fresh blood CD4+ T cells of subject F3; free CD4 sites left by dB4 detected by dB4C7-Alexa (250 ng/mL).
For assay [17] the target is unchanged. In words: FACS, fresh blood CD4+ T cells of subject M2; free CD4 sites left by dB4 detected by dB4C7-Alexa (250 ng/mL).
The target is the same in assay [18]. In words: saturation binding to HPB-ALL cells on ice 1 h; free antibody by ELISA, bound by subtraction, curve fit; exp. 2.
Method: (§4) The resultant saturating free-vs.-bound concentration profiles were analyzed on SigmaPlot by curve-fitting based on the equation, [B]=Bmax·{[F]/([F]+Kd)}, where the respective [B] and [F] stand for the bound and free concentrations.
(§5) The binding study was conducted at cold and/or under 0.05% azide to avoid a potential endocytosis of the ligand-receptor complexes. Incubation at room temperature or 37° C. could allow a reaction plateau to be reached sooner. […] The supernatants were collected for determination by ELISA of the free drug concentrations, and the bound fractions were obtained by subtraction from the total.
For assay [19] the target is unchanged. In words: saturation binding to HPB-ALL cells on ice 1 h; free antibody by ELISA, bound by subtraction, curve fit; exp. 3.
Method: as §4, §5

B1: mAb dB4C7 (human deimmunized, Fc-aglycosylated IgG1 derived from murine mAb B4, expressed by clone 7) (antibody, V domains shown)
VH: QVQLVQSGPELKKPGASVKVSCKASGYTFTDYVIHWVKQATGQGLEWIGEIYPGSGSAYSNAKFKDRVTMTADKSSNTAYMELSSLTSDDTAVYFCARRGNGTGFAYWGQGTLVTVSS
VL: DIVLTQSPASLAVSLGQRATITCKAGQSVDYDGDSYMNWYQQKPGQPPKLLIYVASNLESGIPARFSGSGSGTDFTLNIHPVEENDAATYYCQQSYKDPLTFGQGTKLEIKR
modifications: N-glycosylated at Asn101 in the Fv; Fc N-glycosylation site removed (N298H)
notes: treated as one molecule; also called deimmunized B4
Turning to B1, the EC50 in assay [1] was determined as 330 ng/mL; in [2], 290 ng/mL; in [5], 4.7 ng/mL; in [6] it was 5.7 ng/mL; in assay [7] it was 3.7 ng/mL; in assay [8] it was 2.6 ng/mL. For the same molecule, the concentration giving a half-maximal response (EC50) in assay [9] was found to be 42.1 ng/mL; in [10] it was 43.7 ng/mL; in assay [11], 40.7 ng/mL; in assay [12], 45.7 ng/mL; in [13] it was 42.2 ng/mL; in [14], 4.3 ng/mL. The EC50 in [15] stood at 6.6 ng/mL; in assay [16], 4.3 ng/mL; in [17] it was 4.6 ng/mL. In addition, the “fold binding affinity against gp120 MN” value in assay [3] is at least 50 fold. Besides, in assay [4], the “fold binding affinity, CD4-positive T cells against sCD4” value is over 40 fold. The equilibrium dissociation constant (Kd) was 0.0121 µg/mL and 0.081 nM in assay [18]; 0.0047 µg/mL and 0.031 nM in assay [19].
